Numbering of substitutions follows the chain as printed. Where two headings read alike, the source gives them in different places.
T1: cSIRPαV1D1 with histidine tag (cynomolgus monkey (Macaca fascicularis), UniProt Q5TFQ8 30-146 (human entry))
T1 construct: also called cynomolgus monkey SIRPαV1D1; not shown: histidine tag
T1 chain: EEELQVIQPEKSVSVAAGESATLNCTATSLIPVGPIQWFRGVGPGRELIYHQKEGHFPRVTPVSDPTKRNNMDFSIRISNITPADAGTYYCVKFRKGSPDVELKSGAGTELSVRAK

T2: cSIRPαV2D1 with histidine tag (cynomolgus monkey (Macaca fascicularis), UniProt Q5TFQ8 30-146 (human entry))
T2 construct: also called cynomolgus monkey SIRPαV2D1; not shown: histidine tag
T2 chain: T1 chain with E19D, A27V, T28S, V42A, H51N, Q52L

B1: Ab24_G2 (antibody, human IgG2, kappa)
heavy: EVQLVESGGGLVKPGGSLRLSCAASGFTFSSYVMSWVRQTPGKGLEWVATISSGGTYTYYPDSVKGRFTLSRDNAKNSLYLQMNSLRAEDTAVYYCASQLTGSEFDYWGQGTTVTVSSASTKGPSVFPLAPCSRSTSESTAALGCLVKDYFPEPVTVSWNSGALTSGVHTFPAVLQSSGLYSLSSVVTVPSSNFGTQTYTCNVDHKPSNTKVDKTVERKCCVECPPCPAPPVAGPSVFLFPPKPKDTLMISRTPEVTCVVVDVSHEDPEVQFNWYVDGVEVHNAKTKPREEQFNSTFRVVSVLTVVHQDWLNGKEYKCKVSNKGLPAPIEKTISKTKGQPREPQVYTLPPSREEMTKNQVSLTCLVKGFYPSDIAVEWESNGQPENNYKTTPPMLDSDGSFFLYSKLTVDKSRWQQGNVFSCSVMHEALHNHYTQKSLSLSPGK
light: DIVLTQSPASLAVSLGERATISCRASESVDLYGTSFMHWYQQKPGQPPKLLIYRASNLESGVPDRFSGSGSRTDFTLTINPLQAEDVATYYCHQSSDELPWTFGGGTKVEIKRTVAAPSVFIFPPSDEQLKSGTASVVCLLNNFYPREAKVQWKVDNALQSGNSQESVTEQDSKDSTYSLSSTLTLSKADYEKHKVYACEVTHQGLSSPVTKSFNRGEC
notes: like Ab24_G4 but with an IgG2 HC; also called Ab24_IgG2
B2: Ab24_4422 PA (antibody, human IgG4 S228P, kappa)
heavy: B1 heavy with N193S, F194L, Q197K, T215R, R218S, C220Y, C221G, V222P, E223P, P326A
light: B1 light
B3: Ab1_G4 (antibody, human IgG4 S228P, kappa, V domains shown)
VH: EVQLVESGGGLVKPGGSLRLSCAASGFTFSSYVMSWVRQTPGKGLEWVATISSGGTYTYYPSSVKGRFTLSRDNAKNSLYLQMNSLRAEDTAVYYCASSLTGSSFDYWGQGTTVTVSS
VL: DIVLTQSPASLAVSLGERATISCRASESVDLYGTSFMHWYQQKPGQPPKLLIYRASNLESGVPDRFSGSGSRTDFTLTINPLQAEDVATYYCHQSSDELPWTFGGGTKVEIKR
notes: human IgG4 format, kappa light chain, made in EXPICHO cells
B4: Ab11_G4 (antibody, human IgG4 S228P, kappa, V domains shown)
VH: B3 VH with S62D, S99Q, S104E
VL: DIVITQSPASLAVSLGERATISCRASESVDSYGNSFMHWYQQKPGQPPKLLIYRASNLESGVPDRFSGSGSRTDFTLTINPLQAEDVATYYCHQSGDLPWTFGGGTKVEIKR
notes: human IgG4 format

Assays:
[1] = target: T3, hSIRPαV2 expressed on the cell surface (human, UniProt P78324 31-504); assay: FACS competition: inhibition of biotinylated hCD47:Fc (2.5 µg/ml) binding to EXPI293 cells expressing hSIRPαV2, FIG. 5A
T3 construct: whole, on cells; also called human SIRPα variant V2
Experimental: (§1) The x axes show the antibody concentration in μg/ml. The y axes show mean fluorescence intensity (MFI) at about 572 nm.
(§2) Some of the anti-SIRPα antibodies described above were tested in vitro for their ability to inhibit binding of CD47 to hSIRPαV1 or hSIRPαV2 expressed on the surface of EXPI293™ cells stably transfected with DNA encoding these proteins. Briefly, stable transfectants expressing hSIRPαV1 or hSIRPαV2 were seeded into 96-well microtiter plates. […] After 30 minutes incubation, cells were washed, streptavidin-phycoerythrin (streptavidin-PE) was added, and cells were subjected to FACS to detect bound hCD47:Fc. Results were reported as a mean fluorescence intensity (MFI) using FlowJo software (FLOWJO, L.L.C., Ashland, Oreg., USA). FIGS. 4 and 5 show the MFI detected on the y axes of both panels and the antibody concentration on the x axes of both panels.

[2] = target: T4, hSIRPαV1 expressed on the cell surface (human, UniProt P78324 31-504); assay: FACS competition on EXPI293 cells stably expressing hSIRPαV1: biotinylated hCD47:Fc (2.5 µg/ml) mixed with serial dilutions of the antibody, bound hCD47:Fc detected with streptavidin-PE (MFI); blocked ligand: hCD47:Fc
T4 construct: also called human SIRPα variant V1
Experimental: as §1, §2

[3] = target: T1, cSIRPαV1D1 with histidine tag; assay: SPR (Biacore 3000), IgG captured on anti-human IgG, His-tagged D1 analyte
Source text: (§3) Goat anti-human IgG capture antibody (Jackson Laboratories; 109-005-098) was immobilized on the four flow cells in each sensor chip using standard amine coupling chemistry. About 8000 resonance units (RU) of this antibody was immobilized on each flow cell. Flow cells 2, 3, and 4 were used to analyze captured anti-SIRPα antibodies (about 250 to 300 RU were captured on each of flow cells 2, 3, and 4), while flow cell 1 was used as the reference flow cell. The analytes tested were hSIRPαV1D1, hSIRPαV2D1, cynomolgus monkey SIRPαV1D1 (cSIRPαV1D1), cSIRPαV2D1, hSIRPβ1D1, and hSIRPγD1, each of which also included a histidine tag. The sequences of cSIRPαV1D1 and cSIRPαV2D2 are provided in SEQ ID NOs: 143 and 142, respectively. To avoid confusion, the differences between the amino acid sequences of cSIRPαV1D1 and cSIRPαV2D1 are not the same as the differences between the amino acid sequences of hSIRPαV1D1 and hSIRPαV2D1. […] The amino acid sequence of hSIRPβ1D1 can be found in amino acids 30-148 of SEQ ID NO: 144, and the amino acid sequence of hSIRPγD1 can be found in amino acids 31-149 of SEQ ID NO: 141.
(§4) Generally, concentrations from about 0.1×KD to about 10×KD are appropriate for kinetic analysis. From one to six different concentrations were evaluated for each antibody:analyte interaction, depending on the comparisons to be made in an individual experiment. All analyte dilutions were prepared in HPS-EP buffer. Multiple blank (running buffer) injections were run and used to assess and subtract system artifacts. The association phase and dissociation phase for all analyte concentrations were monitored for 180 seconds and 300 seconds, respectively, at a flow rate of 50 μL/min. Between antibody samples, the surfaces of the flow cells were regenerated with 10 mM glycine, pH 1.5 using two injections, each lasting 12 seconds at a flow rate of 50 μL/min.
(§5) The data were analyzed using BIAevaluation software (Biacore, General Electric (GE)). The data was fit using the 1:1 Langmuir model.

[4] = target: T5, hSIRPγD1 with histidine tag (human, UniProt Q9P1W8 31-149); assay: as above
T5 construct: also called first immunoglobulin-like domain of human SIRP Gamma; not shown: histidine tag
Source text: as §3, §4, §5

[5] = target: T2, cSIRPαV2D1 with histidine tag; assay: as above
Source text: as §3, §4, §5

[6] = target: T6, hSIRPαV2D1 with histidine tag (human); assay: as above
T6 construct: analyte of the Biacore experiments; also called first immunoglobulin-like domain of human SIRPα variant V2; not shown: histidine tag
Source text: as §3, §4, §5

[7] = target: T7, hSIRPαV1D1 with histidine tag (human, UniProt P78324 31-147); assay: as above
T7 construct: analyte of the Biacore experiments; also called first immunoglobulin-like domain of human SIRPα variant V1; not shown: histidine tag
Source text: as §3, §4, §5

[8] = target: T8, hSIRPβ1D1 with histidine tag (human, UniProt O00241 30-148); assay: as above
T8 construct: analyte of the Biacore experiments; also called hSIRPβD1; not shown: histidine tag
Source text: as §3, §4, §5

[9] = target: T3, hSIRPαV2 expressed on the cell surface; assay: FACS competition on EXPI293 cells stably expressing hSIRPαV2: biotinylated hCD47:Fc (2.5 µg/ml) mixed with serial dilutions of the antibody, bound hCD47:Fc detected with streptavidin-PE (MFI); blocked ligand: hCD47:Fc
Experimental: (§6) The x axes show the antibody concentration in μg/ml. The y axes show mean fluorescence intensity (MFI) at about 572 nm (due to binding of biotinylated CD47:Fc, detected by a streptavidin-phycoerythrin conjugate).
as §2

[10] = target: T4, hSIRPαV1 expressed on the cell surface; assay: FACS competition on EXPI293 cells stably expressing hSIRPαV1: biotinylated hCD47:Fc (2.5 µg/ml) mixed with serial dilutions of the antibody, bound hCD47:Fc detected with streptavidin-PE (MFI); blocked ligand: hCD47:Fc; remark: listed apart in the source
Experimental: as §6, §2

[11] = target: T3, hSIRPαV2 expressed on the cell surface; assay: flow cytometry on primary human monocytes (FSC/SSC gate) in PBMCs expressing only SIRPαV2, antibody detected with APC-(Fab)2 goat anti-human IgG Fc (MFI at about 670 nm)
Experimental: FIG. 6: Binding of anti-SIRPα antibodies to T cells and monocytes. Methods are described in Example 4. […] The x axes show the antibody concentration in μg/ml. The y axes show mean fluorescence intensity (MFI) at about 670 nm (due to binding of allophycocyanin (APC)-conjugated (Fab)₂ goat anti-human IgG Fc-specific secondary antibody).
Some of the anti-SIRPα antibodies were tested in vitro for binding to primary T cells and monocytes in peripheral blood mononuclear cells (PBMCs). Briefly, PBMCs that expressed only SIRPα V2 were seeded in 96-well microtiter plates. Serial dilutions of anti-SIRPα antibodies were incubated with the cells on ice for 30 minutes. […] The cells were then subjected to FACs. T cells were gated based on their anti-CD4 or anti-CD8 binding (detected by FITC fluorescence), since T cells commonly express either CD4 or CD8. Monocytes were gated based on their forward scatter/side scatter (FSC/SSC) profile, since a characteristic FSC/SSC profile can identify monocytes. See, e.g., Marimuthu et al., Characterization of human monocytes subsets by whole blood flow cytometry analysis, J. Vis. Exp. (140), e57941, doi:10.3791/57941 (2018). The binding of anti-SIRPα antibodies to each population was reported as a mean fluorescence intensity (MFI) of the APC channel (670 nm).

IC50 [1] [µg/mL] | IC50 (read off the curve) [2] [µg/mL] | Kd [3] [nM] | Kd [4] [nM] | Kd [5] [nM] | Kd [6] [nM] | Kd [7] [nM] | Kd [8] [nM] | IC50 (read off the curve) [9] [µg/mL] | IC50 (read off the curve) [10] [µg/mL] | EC50 (read off the curve) [11] [µg/mL] | Binder
0.22 | ~0.4 | – | – | – | – | – | – | – | – | – | B1
0.17 | ~0.3 | – | – | – | – | – | – | – | – | – | B2
– | – | 36.4 | 244 | ~399 | 3.12 | 67.9 | 1.39 | ~0.2 | ~0.6 | – | B3
– | – | 127 | ~7310 | ~519 | 3.09 | 231 | 11.1 | ~0.3 | – | ~0.06 | B4
